Assay results: patent US12227551B2, “Membrane bound IL12 compositions and methods for tunable regulation” (Obsidian Therapeutics, Inc., priority 2018, dated 2025)

Legend:
[1] = Plasma IL12 and IFNgamma cytokine levels, Nalm6-Luc NSG model (Example 9; Table 31); format: in vivo, NSG mice; settings: day 14 post T cell transfer
Protocol: (§1) The study was designed to determine if membrane bound IL12 (mbIL12) expressed on CAR-T cells via a CD8 TM domain and CD8 Hinge Region promotes CAR T cell expansion in cis, promotes non-CAR-T cell expansion in trans, and/or increases in vivo CAR T cell efficacy against CD19+ Nalm6 tumors. To test in vivo anti-tumor activity, experiments were performed in NSG mice. Nalm6 cells were transfected with Redifect Red-Fluc (Perkin Elmer) under selection using Puromycin for ˜2 months to generate a line that stably expresses the luciferase reporter; thereafter named Nalm6-Luc. Ten days before tumor implantation, Nalm6-Luc cells were thawed and cultured in puromycin-containing media. On day 0, cells were counted, resuspended in PBS and injected into NSG mice via tail vein. On day 6, mice were imaged for bioluminescent intensity (BLI) and sorted into groups based on their tumor size ensuring that all groups had the same sized tumors. Human T cells were transduced with one of the following constructs as shown in the study design in Table 27:
Thus, anti-tumor efficacy (Table 28) appears to correlate with plasma cytokine levels.

CD19+ Nalm6 tumors [2] = test: Kaplan-Meier animal survival (Example 10; Table 35); format: in vivo, NSG mice
Protocol: as §1, with “To” for “The study was designed to determine if membrane bound IL12 (mbIL12) expressed on CAR-T cells via a CD8 TM domain and CD8 Hinge Region promotes CAR T cell expansion in cis, promotes non-CAR-T cell expansion in trans, and/or increases in vivo CAR T cell efficacy against CD19+ Nalm6 tumors. To”, “ensure” for “ensuring”, “33:” for “27:”
Percent survival was also measured for each group during the course of the experiment and the following numbers were obtained as shown in Table 35: […]

[3] = Plasma IL12 and IFNgamma levels (Example 10; Table 36); format: in vivo, NSG mice; settings: day 14 post T cell transfer; 1 million CAR+ T cells
Protocol: as §1, with “To” for “The study was designed to determine if membrane bound IL12 (mbIL12) expressed on CAR-T cells via a CD8 TM domain and CD8 Hinge Region promotes CAR T cell expansion in cis, promotes non-CAR-T cell expansion in trans, and/or increases in vivo CAR T cell efficacy against CD19+ Nalm6 tumors. To”, “ensure” for “ensuring”, “33:” for “27:”
Thus, anti-tumor efficacy (Table 34) appears to correlate with plasma IL12 and IFNgamma levels.

CD19+ Nalm6 tumors [4] = test: Nalm6-Luc tumor burden by BLI, mean total flux, NSG mice, B7.1 TM mbIL12 constructs (Example 10; Table 34); format: in vivo
Protocol: as §1, with “To” for “The study was designed to determine if membrane bound IL12 (mbIL12) expressed on CAR-T cells via a CD8 TM domain and CD8 Hinge Region promotes CAR T cell expansion in cis, promotes non-CAR-T cell expansion in trans, and/or increases in vivo CAR T cell efficacy against CD19+ Nalm6 tumors. To”, “ensure” for “ensuring”, “33:” for “27:”
Next, holding total CAR+ T cell dose constant at 1 million cells per animal, transduced T cells were intravenously infused into mice on day 7. Tumors were monitored in mice using BLI and the mean of the Total Flux (photons/second) was calculated for each group as an indicator of tumor burden (Table 34). In order to track the trans effect of IL12 expressing CART cells on that lack expression of IL12, 10 million GFP+ T cells (negative for IL12) were co-infused with the IL12-expressing CAR+ T cells, and peripheral blood draws taken over time to evaluate the effect of IL12 on phenotypic changes in GFP+ T cells by flow cytometry analysis.

[5] = Body weight and clinical signs of GVHD, Nalm6-Luc NSG model (Example 9; Table 30); format: in vivo, NSG mice; settings: in g (unit assumed)
Protocol: as §1
The amount of body weight loss appeared to correlate with the levels of plasma IL12 detected at earlier timepoints (Table 31).

B1: OT-001356: CD19 CAR; stop; IRES; secreted IL12 (p40 23-328; (G4S)3; p35 57-253); nucleic acid SEQ ID NO: 482 (protein)
chain: IWELKKDVYVVELDWYPDAPGEMVVLTCDTPEEDGITWTLDQSSEVLGSGKTLTIQVKEFGDAGQYTCHKGGEVLSHSLLLLHKKEDGIWSTDILKDQKEPKNKTFLRCEAKNYSGRFTCWWLTTISTDLTFSVKSSRGSSDPQGVTCGAATLSAERVRGDNKEYEYSVECQEDSACPAAEESLPIEVMVDAVHKLKYENYTSSFFIRDIIKPDPPKNLQLKPLKNSRQVEVSWEYPDTWSTPHSYFSLTFCVQVQGKSKREKKDRVFTDKTSATVICRKNASISVRAQDRYYSSSWSEWASVPCSGGGGSGGGGSGGGGSRNLPVATPDPGMFPCLHHSQNLLRAVSNMLQKARQTLEFYPCTSEEIDHEDITKDKTSTVEACLPLELTKNESCLNSRETSFITNGSCLASRKTSFMMALCLSSIYEDLKMYQVEFKTMNAKLLMDPKRQIFLDQNMLAVIDELMQALNFNSETVPQKSSLEEPDFYKTKIKLCILLHAFRIRAVTIDRVMSYLNASGS
[1]; cell dose 0.3 ×10e6
  Day 14 Plasma IFNgamma Levels: 17,565 pg/mL
  Day 14 Plasma IL 12 Levels: 1,455 pg/mL
[1]; cell dose 1 ×10e6
  Day 14 Plasma IFNgamma Levels: 22,154 pg/mL
  Day 14 Plasma IL 12 Levels: 3,853 pg/mL
CD19+ Nalm6 tumors [2]; day 0 post tumor implant
  Kaplan-Meier Analysis of Animal Survival (percent survival): 100%
CD19+ Nalm6 tumors [2]; day 41 post tumor implant
  Kaplan-Meier Analysis of Animal Survival (percent survival): 100%
[3]
  Day 14 Plasma IFNgamma Levels: 13,344 pg/mL
  Day 14 Plasma IL10 Levels: 6.9 pg/mL
  Day 14 Plasma IL 12 Levels: 2,434 pg/mL
CD19+ Nalm6 tumors [4]; day 6 post tumor implant, day −1 post T cell transfer (before infusion), 1 million CAR+ T cells
  Mean Total Flux (Nalm-6 Tumor Burdon): 2667500 photons/second
CD19+ Nalm6 tumors [4]; day 15 post tumor implant, day 8 post T cell transfer
  Mean Total Flux (Nalm-6 Tumor Burdon): 72220000 photons/second
CD19+ Nalm6 tumors [4]; day 19 post tumor implant, day 12 post T cell transfer
  Mean Total Flux (Nalm-6 Tumor Burdon): 3141750 photons/second
CD19+ Nalm6 tumors [4]; day 22 post tumor implant, day 15 post T cell transfer
  Mean Total Flux (Nalm-6 Tumor Burdon): 1001125 photons/second
CD19+ Nalm6 tumors [4]; day 27 post tumor implant, day 20 post T cell transfer
  Mean Total Flux (Nalm-6 Tumor Burdon): 991750 photons/second
CD19+ Nalm6 tumors [4]; day 30 post tumor implant, day 23 post T cell transfer
  Mean Total Flux (Nalm-6 Tumor Burdon): 797000 photons/second
CD19+ Nalm6 tumors [4]; day 33 post tumor implant, day 26 post T cell transfer
  Mean Total Flux (Nalm-6 Tumor Burdon): 887000 photons/second
CD19+ Nalm6 tumors [4]; day 36 post tumor implant, day 29 post T cell transfer
  Mean Total Flux (Nalm-6 Tumor Burdon): 627875 photons/second
CD19+ Nalm6 tumors [4]; day 41 post tumor implant, day 34 post T cell transfer
  Mean Total Flux (Nalm-6 Tumor Burdon): 697500 photons/second
[5]; day 6 post tumor implant (before T cell infusion)
  body weight: 19.6125
[5]; day 13 post tumor implant
  body weight: 20.5125
[5]; day 20 post tumor implant
  body weight: 20.5875
[5]; day 27 post tumor implant
  body weight: 22.2125
[5]; day 34 post tumor implant
  body weight: 21.8875
[5]; day 41 post tumor implant
  body weight: 19.93
